This is an account of results in PMC5469197, “ANGUSTIFOLIA, a Plant Homolog of CtBP/BARS Localizes to Stress Granules and Regulates Their Formation” (Frontiers in Plant Science, 2017).

Holding throughout (assay): co-IP; LUMIER in HEK293TN cells: Prot-A fusion co-transfected with Renilla luciferase fusion (AN always the luciferase fusion with the interactors); luciferase activity before (input) and after pulldown; percentage pulldown = pulldown/input x 100; empty vectors as negative control; positive if more than two times the background
Holding throughout (details): partners not purified

The target of experiment [1] is T1, POLY(A) BINDING PROTEIN 2 (PAB2), Prot-A fusion (Arabidopsis thaliana, UniProt P42731 1-629).
T1 construct: CDS amplified from Col-0 cDNA; also called AtPAB2; source: HEK293TN cells, transfected; not shown: Protein A (Staphylococcus aureus), N-terminal, kept
T1 sequence (looked up): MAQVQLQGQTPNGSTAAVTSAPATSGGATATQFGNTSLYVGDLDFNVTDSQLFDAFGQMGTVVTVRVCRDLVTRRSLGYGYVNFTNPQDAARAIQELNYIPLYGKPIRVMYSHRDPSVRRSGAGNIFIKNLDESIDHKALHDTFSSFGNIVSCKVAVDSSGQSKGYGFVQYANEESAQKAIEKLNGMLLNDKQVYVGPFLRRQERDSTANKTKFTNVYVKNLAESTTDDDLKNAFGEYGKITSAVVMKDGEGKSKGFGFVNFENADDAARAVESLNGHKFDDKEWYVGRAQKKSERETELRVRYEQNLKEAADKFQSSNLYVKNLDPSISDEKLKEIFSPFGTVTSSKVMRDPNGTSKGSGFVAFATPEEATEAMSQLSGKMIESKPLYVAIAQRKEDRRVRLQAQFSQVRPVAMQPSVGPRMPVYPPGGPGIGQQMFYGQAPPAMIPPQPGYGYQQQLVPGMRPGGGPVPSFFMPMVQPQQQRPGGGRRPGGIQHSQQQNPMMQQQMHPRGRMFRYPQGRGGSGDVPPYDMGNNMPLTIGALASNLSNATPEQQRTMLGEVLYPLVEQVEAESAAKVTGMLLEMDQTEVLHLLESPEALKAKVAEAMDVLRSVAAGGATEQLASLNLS

The target in experiment [2] is T2, EUKARYOTIC INITIATION FACTOR 4E1 (EIF4E1), Prot-A fusion (Arabidopsis thaliana, UniProt O23252 1-235).
T2 construct: Eukaryotic initiation factor 4E1, Arabidopsis thaliana, AT4G18040; CDS amplified from Col-0 cDNA; source: HEK293TN cells, transfected; not shown: Protein A (Staphylococcus aureus), N-terminal, kept
T2 sequence (looked up): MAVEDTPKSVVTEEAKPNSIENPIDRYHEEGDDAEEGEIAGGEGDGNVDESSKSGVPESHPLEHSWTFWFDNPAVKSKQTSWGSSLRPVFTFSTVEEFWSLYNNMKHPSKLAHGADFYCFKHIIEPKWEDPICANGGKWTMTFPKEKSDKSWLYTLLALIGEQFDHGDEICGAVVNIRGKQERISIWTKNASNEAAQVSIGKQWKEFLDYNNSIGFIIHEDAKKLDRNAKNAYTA

Experiment [3] has as its target T3, TANDEM ZINC FINGER 3 (TZF3), Prot-A fusion (Arabidopsis thaliana, UniProt Q9M0G2 1-356).
T3 construct: Tandem zinc finger 3, Arabidopsis thaliana, AT4G29190; CDS amplified from Col-0 cDNA; source: HEK293TN cells, transfected; not shown: Protein A (Staphylococcus aureus), N-terminal, kept
T3 sequence (looked up): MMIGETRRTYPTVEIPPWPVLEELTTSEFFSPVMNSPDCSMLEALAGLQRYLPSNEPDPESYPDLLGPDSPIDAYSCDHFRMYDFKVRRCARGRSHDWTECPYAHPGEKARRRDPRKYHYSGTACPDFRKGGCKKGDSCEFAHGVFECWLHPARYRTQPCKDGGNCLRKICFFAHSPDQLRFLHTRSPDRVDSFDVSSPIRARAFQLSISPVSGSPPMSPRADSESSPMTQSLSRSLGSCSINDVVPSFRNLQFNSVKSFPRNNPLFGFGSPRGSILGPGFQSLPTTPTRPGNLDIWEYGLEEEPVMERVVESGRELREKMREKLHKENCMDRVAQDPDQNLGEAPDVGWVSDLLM

For experiment [4], the target named is T4, PO…-BINDING PROTEIN RBP47C′, Prot-A fusion (Arabidopsis thaliana, UniProt Q9SX80 1-434).
T4 construct: RBP47C′, Arabidopsis thaliana, AT1G47500; CDS amplified from Col-0 cDNA; source: HEK293TN cells, transfected; not shown: Protein A (Staphylococcus aureus), N-terminal, kept
T4 sequence (looked up): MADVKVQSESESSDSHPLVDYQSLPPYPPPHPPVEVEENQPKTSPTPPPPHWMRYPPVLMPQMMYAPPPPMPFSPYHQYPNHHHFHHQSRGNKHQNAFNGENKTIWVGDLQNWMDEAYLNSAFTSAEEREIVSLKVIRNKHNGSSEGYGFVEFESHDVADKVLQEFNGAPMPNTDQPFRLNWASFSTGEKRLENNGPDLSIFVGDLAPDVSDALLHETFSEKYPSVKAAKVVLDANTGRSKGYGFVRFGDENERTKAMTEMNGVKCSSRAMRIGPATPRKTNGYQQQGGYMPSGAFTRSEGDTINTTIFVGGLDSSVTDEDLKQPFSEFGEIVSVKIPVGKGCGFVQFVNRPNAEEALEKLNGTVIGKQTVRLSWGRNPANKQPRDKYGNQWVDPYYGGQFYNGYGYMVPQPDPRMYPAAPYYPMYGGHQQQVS

B1: AN, Renilla luciferase fusion (LUMIER) (natural protein, Arabidopsis thaliana, UniProt O23702 1-636, looked up)
chain: MSKIRSSATMPHRDQPSPASPHVVTLNCIEDCALEQDSLAGVAGVEYVPLSRIADGKIESATAVLLHSLAYLPRAAQRRLRPHQLILCLGSADRAVDSTLAADLGLRLVHVDTSRAEEIADTVMALILGLLRRTHLLSRHALSASGWLGSLQPLCRGMRRCRGMVLGIVGRSVSARYLASRSLAFKMSVLYFDVPEGDEERIRPSRFPRAARRMDTLNDLLAASDVISLHCALTNDTVQILNAECLQHIKPGAFLVNTGSCQLLDDCAVKQLLIDGTIAGCALDGAEGPQWMEAWVKEMPNVLILPRSADYSEEVWMEIREKAISILHSFFLDGVIPSNTVSDEEVEESEASEEEEQSPSKHEKLAIVESTSRQQGESTLTSTEIVRREASELKESLSPGQQHVSQNTAVKPEGRRSRSGKKAKKRHSQQKYMQKTDGSSGLNEESTSRRDDIAMSDTEEVLSSSSRCASPEDSRSRKTPLEVMQESSPNQLVMSSKKFIGKSSELLKDGYVVALYAKDLSGLHVSRQRTKNGGWFLDTLSNVSKRDPAAQFIIAYRNKDTVGLRSFAAGGKLLQINRRMEFVFASHSFDVWESWSLEGSLDECRLVNCRNSSAVLDVRVEILAMVGDDGITRWID
notes: ANGUSTIFOLIA (AN), Arabidopsis thaliana, AT1G01510; CDS amplified from Col-0 cDNA; in the dimerisation test the second copy must have been the N-terminal protein A fusion (surmised from the LUMIER format); also called wild-type AN; source: HEK293TN cells, transfected; not shown: Renilla reniformis luciferase, N-terminal, kept
Regarding B1, the “fold change from background” value in experiment [1] was determined as 7.67 fold; in experiment [2] it was 2.83 fold; in experiment [3], 5.25 fold; in experiment [4] it was 3.07 fold. Also, the percentage pulldown in experiment [1] was 0.71%; in experiment [2] it was 0.27%; in experiment [3], 0.5%; in experiment [4], 0.29%.
